Variants at the floor of the assay were thinned out.
B1: TPR 5TU (parent)
chain: GGAUCUUCUCGAUCUAACAAAAAAGACAAAUCUGCCACAAAGCUUGAGAGCAUCUUCGGAUGCAGAGGCGGCAGCCUUCGGUGGCGCGAUAGCGCCAACGUUCUCAACUAUGACACGCAAAACGCGUGCUCCGUUGAAUGGAGUUUAUCAUG

Variants of: B1
Assay: polymerase ribozyme fitness, log enrichment relative to wild type (log ratio); higher = more active; in vitro selection for triplet polymerase activity
How it was run: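 To select mutant libraries of each subunit of a heterodimeric triplet polymerase ribozyme, built by PCR and transcribed, each was annealed with a biotinylated primer, partner subunit and triplets, then incubated frozen at −7 °C. Extended constructs were gel-excised, captured on streptavidin beads and amplified by RT-PCR, in one round carried out in triplicate. Illumina sequencing of input and output libraries kept genotypes with ≥10 input reads and ≥1 read per output. Fitness is the base-2 logarithm of genotype enrichment relative to wild-type enrichment, from inverse-variance-weighted replicate averages.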

Variant | polymerase ribozyme fitness (log ratio)
U53G G83C | -3.03
U53A U55G C85A C95U A121C | ≤ -4.2
U53G C54G C57U C95U | -4.07
U55A A60G U102A U148A | -3.91
U55A G94A | -0.894
C54A A64G C76G C93U A138C | ≤ -4.2
U55A C76G G92A A122G | ≤ -4.2
C54U U56A C93U C131G G133A U146A G152U | -4
U53G U90A C93G A110C | ≤ -4.2
C54U C85U U104G A119G G136A U146G A147G | -3.62
U55A U109G | -1.03
U55A A106G A119C A122G | -0.869
U55A A97G C116A | 1.12
U55G | -0.284
U55C | 0.0178
U55A | -0.301
C54U U56A G84U | -0.698
C54U U55A A98U U144A | -1.24
C54A G94C A107C C108G | ≤ -4.2
U55A A98U U135A | -1.42
U55A G83A G126A | 0.425

Variant | polymerase ribozyme fitness (log ratio)
U55G G58C C116U G143A | -1.24
C54A C85U C108U | ≤ -4.2
C54U A60G A64G C85U C99A C105U A106C | ≤ -4.2
U53A G92C A137G | -3.41
U55A G59A C116A | 2.35
U53A U61A | -1.15
U53A U61G | -0.814
U55A C93U C95A | -2.89
U55A C93G | -3.83
U55A A60C C85U A89G | -4.15
C54G A122G U144G | -0.687
U53G U61A C85U G94U A97U G152A | ≤ -4.2
U55G C57A G62C C79U U109G | ≤ -4.2
U55G G86U U145A | -0.475
U55A A120U | -0.857
U55G G84A | -1.68
U55A G128U | -3.12
U55G G92U G117A A121U A122U U151G | ≤ -4.2
U53A U109G C116A G136C U144C | -4.07
C54U C57U G83C A106C U135C | ≤ -4.2
U53A U55A A121U | -2.74

Variant | polymerase ribozyme fitness (log ratio)
U53G G58C G92A C125G A150C | ≤ -4.2
U55A G88A | ≤ -4.2
C54A C87U C93G U134G U135A | ≤ -4.2
U55A G84U G124A | -1.26
U55A G67U C69G C76A A98G | -2.81
U55G C63A U134G | -3.01
U55G C87U C129G | -3.16
U55A C99G | -1.61
U55A G58U C79U G88A A106G | ≤ -4.2
C54U U56G C57U C76U C95G | -2.9
C54A G83C C85A | ≤ -4.2
C54A G80C C114A U127G G143C | ≤ -4.2
U55G A98G U139G | -0.271
U55C A91G A106C C129U C131U | ≤ -4.2
C54A G124A C125U A147C | -2.1
C54U C103U C123A U148G | ≤ -4.2
C54A C85G G124U | -3.78
U53C C57U A60G C69A A97U G141A U146C | -0.526
U55A G68A C76A C96G C114G G133A A138U | ≤ -4.2
U55A C57A G59C G80U A91U | ≤ -4.2
U55A G68A G86U U90A A97U U101A A137C U145C | ≤ -4.2

Variant | polymerase ribozyme fitness (log ratio)
U53A U104G | -1.97
C54U C69A | -3.63
U55A G62C G68U C96U A121U | ≤ -4.2
C54A A60G G81A A91U A106U A110G G141C | ≤ -4.2
U55G G58U G62C C85U A137G | -3.31
U55A C69U C85A C87U | ≤ -4.2
C54U A73C G94U C116G C125A U134A | ≤ -4.2
U55A C93U A150C | -4.02
U56A | -0.324
C54A G83U U134A U148C | ≤ -4.2
C54U G84A | -0.613
U55A C63G | 0.923
U55A U56A C57A C85U G86A C103G | ≤ -4.2
C54A G86U A97G | ≤ -4.2
C54U C85A A119U U130G | -3.83
U55A C57G | -0.56
C54G U55A G94U A98C A150G | -3.84
U55G G94A A115G A122U U134C U139C G143A U148C | ≤ -4.2
U55A C85U C114G G128A | ≤ -4.2
U55A A66G G86A A97G U146G | ≤ -4.2
U55G U148C | -2.46
